Assay results: article PMC8216282, “Structural basis for the dynamics of human methionyl-tRNA synthetase in multi-tRNA synthetase complexes” (Nucleic Acids Research, 2021)

T1: MRS221-900 (methionyl-tRNA synthetase without N-terminal GST domain) (human, UniProt P56192 221-900)
T1 sequence: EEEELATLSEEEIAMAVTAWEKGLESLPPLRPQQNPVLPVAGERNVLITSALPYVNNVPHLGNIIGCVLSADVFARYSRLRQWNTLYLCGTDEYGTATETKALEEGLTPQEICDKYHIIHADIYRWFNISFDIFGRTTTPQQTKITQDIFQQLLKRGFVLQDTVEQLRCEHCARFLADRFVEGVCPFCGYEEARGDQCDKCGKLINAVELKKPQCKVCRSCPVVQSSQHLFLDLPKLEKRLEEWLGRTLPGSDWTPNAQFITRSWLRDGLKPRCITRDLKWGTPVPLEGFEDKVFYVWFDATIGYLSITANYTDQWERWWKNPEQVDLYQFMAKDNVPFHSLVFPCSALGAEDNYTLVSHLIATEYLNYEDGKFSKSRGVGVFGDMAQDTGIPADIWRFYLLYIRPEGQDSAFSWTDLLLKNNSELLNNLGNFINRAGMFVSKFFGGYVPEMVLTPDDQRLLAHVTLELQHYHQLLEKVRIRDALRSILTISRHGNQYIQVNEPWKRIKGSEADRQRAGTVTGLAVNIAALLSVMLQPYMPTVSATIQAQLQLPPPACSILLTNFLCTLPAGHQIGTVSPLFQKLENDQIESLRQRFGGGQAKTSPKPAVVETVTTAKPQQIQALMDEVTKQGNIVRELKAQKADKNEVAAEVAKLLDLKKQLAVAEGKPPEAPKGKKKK

T2: MRS full-length (in MRS-AIMP3 complex);AIMP3 (in MRS-AIMP3 complex) (human;human?, UniProt P56192;O43324 1-900;1-174, |)
T2 sequence 1: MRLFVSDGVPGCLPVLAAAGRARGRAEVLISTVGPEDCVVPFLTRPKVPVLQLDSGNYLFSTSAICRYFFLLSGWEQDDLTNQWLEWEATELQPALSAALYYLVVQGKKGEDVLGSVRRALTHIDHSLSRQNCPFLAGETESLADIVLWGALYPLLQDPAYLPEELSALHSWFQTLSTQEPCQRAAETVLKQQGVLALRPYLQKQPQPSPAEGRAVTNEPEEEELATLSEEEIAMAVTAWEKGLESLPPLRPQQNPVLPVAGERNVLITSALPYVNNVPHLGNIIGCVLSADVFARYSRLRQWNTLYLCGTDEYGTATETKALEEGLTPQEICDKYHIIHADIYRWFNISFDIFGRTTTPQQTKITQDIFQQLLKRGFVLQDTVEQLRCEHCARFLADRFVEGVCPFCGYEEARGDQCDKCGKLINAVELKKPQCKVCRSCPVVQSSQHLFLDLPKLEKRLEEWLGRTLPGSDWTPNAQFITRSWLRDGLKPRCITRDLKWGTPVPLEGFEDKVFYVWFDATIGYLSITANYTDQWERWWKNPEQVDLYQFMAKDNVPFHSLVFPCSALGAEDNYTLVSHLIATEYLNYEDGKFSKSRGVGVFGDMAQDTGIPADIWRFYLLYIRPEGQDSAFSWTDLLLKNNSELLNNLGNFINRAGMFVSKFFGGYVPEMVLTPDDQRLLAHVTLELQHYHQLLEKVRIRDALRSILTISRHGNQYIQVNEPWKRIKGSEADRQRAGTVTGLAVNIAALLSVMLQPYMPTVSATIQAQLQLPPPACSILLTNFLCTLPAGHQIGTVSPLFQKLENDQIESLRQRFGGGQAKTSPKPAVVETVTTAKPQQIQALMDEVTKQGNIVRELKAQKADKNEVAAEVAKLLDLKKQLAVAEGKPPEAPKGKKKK
T2 sequence 2: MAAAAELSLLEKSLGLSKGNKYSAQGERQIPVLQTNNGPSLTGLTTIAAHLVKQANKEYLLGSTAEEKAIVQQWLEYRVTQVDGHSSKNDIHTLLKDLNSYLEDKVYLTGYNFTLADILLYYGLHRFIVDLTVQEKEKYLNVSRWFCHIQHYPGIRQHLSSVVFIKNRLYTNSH

B1: 6-FAM synthetic elongator tRNAMet (structured_RNA)
RNA: GCCUCGUUAGCGCAGUAGGUAGCGCGUCAGUCUCAUAAUCUGAAGGUCGUGAGUUCGAUCCUCACACGGGGCA
modifications: none stated (synthetic RNA)
B2: unlabeled synthetic elongator tRNAMet (structured_RNA)
RNA: GCCUCGUUAGCGCAGUAGGUAGCGCGUCAGUCUCAUAAUCUGAAGGUCGUGAGUUCGAUCCUCACACGGGGCA
modifications: none stated (synthetic RNA)

Columns and labels:
[1] = target: T1, MRS221-900 (methionyl-tRNA synthetase …); assay: MST; labeled RNA (80 nM); MST: PBS, 1-100 uM protein, 80 nM 6-FAM-RNA, temperature not stated; pull-down: 50 mM Tris-HCl pH 7.5, 150 mM NaCl, Ni-NTA (yeast total tRNA pool not listed); conditions: protein: recombinant; tags: hexa-His; tRNA fold
[2] = target: T2, MRS full-length (in MRS-AIMP3 …); assay: as above; conditions: protein: recombinant;recombinant; copies: 1;1; tRNA fold
[3] = target: T1, MRS221-900 (methionyl-tRNA synthetase …); assay: pull-down (Ni-NTA, fluorescence); almost 2-fold; MST: PBS, 1-100 uM protein, 80 nM 6-FAM-RNA, temperature not stated; pull-down: 50 mM Tris-HCl pH 7.5, 150 mM NaCl, Ni-NTA (yeast total tRNA pool not listed); conditions: protein: recombinant, tags: hexa-His
[4] = target: T1, MRS221-900 (methionyl-tRNA synthetase …); assay: MST; protein labeled with Red-tris-NTA, unlabeled RNA; MST: PBS, 1-100 uM protein, 80 nM 6-FAM-RNA, temperature not stated; pull-down: 50 mM Tris-HCl pH 7.5, 150 mM NaCl, Ni-NTA (yeast total tRNA pool not listed); conditions: protein: recombinant; tags: hexa-His; label: none (Results); Methods text says 6-FAM-RNA for this assay too; tRNA fold
[5] = target: T2, MRS full-length (in MRS-AIMP3 …); assay: as above; conditions: protein: recombinant;recombinant; copies: 1;1; label: none (Results); Methods text says 6-FAM-RNA for this assay too; tRNA fold

Binder	Kd [1] [µM]	Kd [2] [µM]	binding signal [3] [fold vs MRS-AIMP3 complex]	Kd [4] [µM]	Kd [5] [µM]
B1	12.8	31.6	~2		
B2				21.6	60.2
